Experimental data from article PMC7984842, “Genetic disruption of WASHC4 drives endo-lysosomal dysfunction and cognitive-movement impairments in mice and humans” (eLife, 2021).

T1: SWIP-MUT-HA (human WASHC4 P1019R) (human, UniProt Q2M389 1-1173, P1019R)
T1 construct: SWIP (WASHC4), human, with the patients' variant c.3056C>G, p.Pro1019Arg, made by site-directed mutagenesis of pmCAG-SWIP-WT-HA; The mutation occurs in human patients (Ropers et al., 2011); also called SWIP^P1019R; MUT SWIP; source: HEK293T, transfected (pmCAG-SWIP-MUT-HA), in lysate
T1 sequence (looked up): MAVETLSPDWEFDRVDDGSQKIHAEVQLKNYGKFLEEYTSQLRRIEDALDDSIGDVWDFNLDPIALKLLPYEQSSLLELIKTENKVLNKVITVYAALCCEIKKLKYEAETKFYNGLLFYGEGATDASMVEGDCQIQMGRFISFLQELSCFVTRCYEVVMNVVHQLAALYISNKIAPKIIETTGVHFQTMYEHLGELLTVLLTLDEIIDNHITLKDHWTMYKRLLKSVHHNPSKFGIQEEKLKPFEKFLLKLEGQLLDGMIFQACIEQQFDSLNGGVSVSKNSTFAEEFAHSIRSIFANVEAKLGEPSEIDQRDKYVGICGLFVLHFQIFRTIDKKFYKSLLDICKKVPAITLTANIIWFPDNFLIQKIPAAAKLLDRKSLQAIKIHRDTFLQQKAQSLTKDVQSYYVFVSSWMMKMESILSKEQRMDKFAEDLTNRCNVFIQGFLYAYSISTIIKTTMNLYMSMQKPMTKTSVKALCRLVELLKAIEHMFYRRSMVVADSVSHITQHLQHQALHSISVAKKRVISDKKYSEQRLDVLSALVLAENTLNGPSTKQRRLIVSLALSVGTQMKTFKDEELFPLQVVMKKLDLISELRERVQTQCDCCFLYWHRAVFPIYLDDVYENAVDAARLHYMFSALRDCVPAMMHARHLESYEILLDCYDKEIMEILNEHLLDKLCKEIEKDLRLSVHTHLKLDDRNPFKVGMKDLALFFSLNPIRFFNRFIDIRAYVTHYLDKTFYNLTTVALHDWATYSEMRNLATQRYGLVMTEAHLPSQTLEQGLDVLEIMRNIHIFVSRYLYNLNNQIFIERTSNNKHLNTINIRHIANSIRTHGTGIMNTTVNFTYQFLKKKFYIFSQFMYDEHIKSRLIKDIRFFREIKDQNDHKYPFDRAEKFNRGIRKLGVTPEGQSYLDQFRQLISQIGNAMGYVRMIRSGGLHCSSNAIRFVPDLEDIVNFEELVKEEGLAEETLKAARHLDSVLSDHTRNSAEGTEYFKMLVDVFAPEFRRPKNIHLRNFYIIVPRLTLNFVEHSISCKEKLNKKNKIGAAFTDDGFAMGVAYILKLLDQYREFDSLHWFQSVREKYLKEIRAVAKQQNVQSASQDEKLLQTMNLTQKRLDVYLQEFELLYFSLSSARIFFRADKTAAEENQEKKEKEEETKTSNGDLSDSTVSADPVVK

B1: WASH1 (WASHC1), human (natural protein, human (endogenous in HEK293T), UniProt A8K0Z3 1-465, looked up)
chain: MTPVRMQHSLAGQTYAVPFIQPDLRREEAVQQMADALQYLQKVSGDIFSRISQQVEQSRSQVQAIGEKVSLAQAKIEKIKGSKKAIKVFSSAKYPAPGRLQEYGSIFTGAQDPGLQRRPRHRIQSKHRPLDERALQEKLKDFPVCVSTKPEPEDDAEEGLGGLPSNISSVSSLLLFNTTENLYKKYVFLDPLAGAVTKTHVMLGAETEEKLFDAPLSISKREQLEQQVPENYFYVPDLGQVPEIHVPSYLPDLPGIANDLMYSADLGPGIAPSAPGTIPELPTFHTEVAEPLKVDLQDGVLTPPPPPPPPPPAPEVLASAPPLPPSTAAPVGQGARQDDSSSSASPSVQGAPREVVDPSGGWATLLESIRQAGGIGKAKLRSMKERKLEKQQQKEQEQVRATSQGGHLMSDLFNKLVMRRKGISGKGPGAGEGPGGAFVRVSDSIPPLPPPQQPQAEEDEDDWES
notes: WASH1 (WASHC1), endogenous in HEK293T cells, detected with an anti-WASH1 C-terminal antibody; Human cells carry several near-identical WASH paralogues; source: endogenous, HEK293T lysate
B2: Strumpellin (WASHC5), human (natural protein, human (endogenous in HEK293T), UniProt Q12768 1-1159, looked up)
chain: MLDFLAENNLCGQAILRIVSCGNAIIAELLRLSEFIPAVFRLKDRADQQKYGDIIFDFSYFKGPELWESKLDAKPELQDLDEEFRENNIEIVTRFYLAFQSVHKYIVDLNRYLDDLNEGVYIQQTLETVLLNEDGKQLLCEALYLYGVMLLVIDQKIEGEVRERMLVSYYRYSAARSSADSNMDDICKLLRSTGYSSQPGAKRPSNYPESYFQRVPINESFISMVIGRLRSDDIYNQVSAYPLPEHRSTALANQAAMLYVILYFEPSILHTHQAKMREIVDKYFPDNWVISIYMGITVNLVDAWEPYKAAKTALNNTLDLSNVREQASRYATVSERVHAQVQQFLKEGYLREEMVLDNIPKLLNCLRDCNVAIRWLMLHTADSACDPNNKRLRQIKDQILTDSRYNPRILFQLLLDTAQFEFILKEMFKQMLSEKQTKWEHYKKEGSERMTELADVFSGVKPLTRVEKNENLQAWFREISKQILSLNYDDSTAAGRKTVQLIQALEEVQEFHQLESNLQVCQFLADTRKFLHQMIRTINIKEEVLITMQIVGDLSFAWQLIDSFTSIMQESIRVNPSMVTKLRATFLKLASALDLPLLRINQANSPDLLSVSQYYSGELVSYVRKVLQIIPESMFTSLLKIIKLQTHDIIEVPTRLDKDKLRDYAQLGPRYEVAKLTHAISIFTEGILMMKTTLVGIIKVDPKQLLEDGIRKELVKRVAFALHRGLIFNPRAKPSELMPKLKELGATMDGFHRSFEYIQDYVNIYGLKIWQEEVSRIINYNVEQECNNFLRTKIQDWQSMYQSTHIPIPKFTPVDESVTFIGRLCREILRITDPKMTCHIDQLNTWYDMKTHQEVTSSRLFSEIQTTLGTFGLNGLDRLLCFMIVKELQNFLSMFQKIILRDRTVQDTLKTLMNAVSPLKSIVANSNKIYFSAIAKTQKIWTAYLEAIMKVGQMQILRQQIANELNYSCRFDSKHLAAALENLNKALLADIEAHYQDPSLPYPKEDNTLLYEITAYLEAAGIHNPLNKIYITTKRLPYFPIVNFLFLIAQLPKLQYNKNLGMVCRKPTDPVDWPPLVLGLLTLLKQFHSRYTEQFLALIGQFICSTVEQCTSQKIPEIPADVVGALLFLEDYVRYTKLPRRVAEAHVPNFIFDEFRTVL
notes: Strumpellin (WASHC5), endogenous in HEK293T cells, detected with an anti-Strumpellin antibody; source: endogenous, HEK293T lysate

Molecular target: T1, SWIP-MUT-HA (human WASHC4 P1019R)
Test: co-IP; HEK293T transfected with SWIP-WT-HA or SWIP-MUT-HA for three days; lysis buffer 25 mM HEPES, 150 mM NaCl, 1 mM EDTA, 1% Nonidet P-40, pH 7.4; anti-HA agarose beads 2 hr at 4°C; blots for WASH1, Strumpellin and HA; band intensities normalised to WT
Details: partners not purified

Binder | amount co-immunoprecipitated, % of WT SWIP
B1 | 41.4 % of WT
B2 | 54.8 % of WT
